The values that follow come from article PMC12011707.

The target of the assay is human extracellular domain of FGFR2b fused with the Fc domain of IgG1 (human). Description: BLI; Octet K2; FGFR extracellular domain-Fc immobilised on a protein A biosensor; FGF10 variants in PBS, 31.25 to 250 nM (told for FGFR2b-Fc); association and dissociation 300 s each; KD from fitted saturation binding curves. (In general: BLI is a label-free optical method that tracks binding on a fibre tip over time.)

B1: wildtype FGF10 (38-208) (ligand)
chain: QALGQDMVSPEATNSSSSSFSSPSSAGRHVRSYNHLQGDVRWRKLFSFTKYFLKIEKNGKVSGTKKENCPYSILEITSVEIGVVAVKAINSNYYLAMNKKGKLYGSKEFNNDCKLKERIEENGYNTYASFNWQHNGRQMYVALNGKGAPRRGQKTRRKNTSAHFLPMVVHS
In general, Kd refers to the constant that tells how readily two partners part at equilibrium. A lower Kd goes with tighter binding. Take B1: the Kd amounted to 764 nM.

B2: FGF10-STAB3 (ligand)
chain: QALGQDMVSPEATNSSSSSFSSPSSAGRHVRSYNHLQGDVRIRKLFSFTGYFLKIEPNGKVSGTKKENCPYSILEITSVEIGVVAVKAINSGYYLAMNKKGKLYGSKEFNNDCKLKERIEENGYNTYASFNWRHNGRQMYVALNGKGAPERGQKTRRKNTSAHFLPMVVHS
As for B2, the Kd is 913 nM.

B3: FGF10-STAB2 (ligand)
chain: QALGQDMVSPEATNSSSSSFSSPSSAGRHVRSYNHLQGDVRIRKLFSFTGYFLKIEPNGKVSGTKKENCPYSILEITSVEIGVVAVKAINSGYYLAMNKKGKLYGSKEFNNDCKLKERIEENGYNTYASFNWRHNGRQMYVALNGKGAPVRGQKTRRKNTSAHFLPMVVHS
On to B3, for which the Kd was 996 nM. The Kd values of the last two molecules are within 1.5-fold of each other.
